Assay [1] addresses T1, KRas^WT-GDP (recombinant) (human, UniProt P01116-2 2-169, GDP bound). Put plainly: SPR, IgG captured, KRas as analyte. For orientation: Surface plasmon resonance follows binding to a sensor surface in real time, without labels.
Method: (§1) SPR experiments were carried out on the Mass-1 (Bruker) at 25° C. using HBS-P+(GE Healthcare) running buffer. 1 μg/mL of the anti-KRas antibodies were captured using an anti-HuIgG1 Fc capture kit (GE Healthcare). […] KRas^G12C-GDP was titrated using a dilution series from 5000-0 nM. KRas^G12C-GDP+ARS1620 was titrated using a dilution series from 1000-0 nM. KRas^G12C-GDP+ARS853 was titrated using a dilution series from 200-0 nM. KRasWT-GDP was titrated using a dilution series from 2000-0 nM. Sensorgrams were fit to a 1:1 Langmuir model to identify kinetic parameters.
The target in assay [2] is T1, KRas^WT-GDP (recombinant). Description: SPR, IgG captured by anti-human IgG1 Fc, KRas in solution, 25 C, 1:1 Langmuir fit.
Method: as §1
In assay [3] the target is KRas^WT-GTP (recombinant) (human, UniProt P01116-2 2-169, GTP bound as printed in Table 1B). Description: SPR, KRas bound to GTP (Table 1B).

We go through ten molecules from patent US20220112308A1 (Genentech, published 2022).

Numbering of substitutions follows the chain as printed.

B1: anti-KRas antibody 2C1 (antibody, V domains shown)
VH: EVQLVESGGGLVKPGGSLRLSCAASGFTFSSYSMNWVRQAPGKGLEWVSSISSSSSYIYYADSVKGRFTISRDNAKNSLYLQMNSLRAEDTAVYYCARAFYSYMDVWGQGTLVTVSS
VL: not shown
notes: also called Class I anti-KRas antibody
Take B1: the binding result in assay [1] is “no binding (tested: titrated 2000-0 nM)”.

B2: anti-KRas antibody 1A5 (antibody, human IgG1, V domains shown)
VH: EVQLVESGGGLVQPGGSLRLSCAASGFTFSSYSMNWVRQAPGKGLEWVSYISSSSSTIYYADSVKGRFTISRDNAKNSLYLQMNSLRAEDTAVYYCARGFYVRNWFDPWGQGTLVTVSS
VL: AIQMTQSPSSLSASVGDRVTITCRASQGIRNDLGWYQQKPGKAPKLLIYAASSLQSGVPSRFSGSGSGTDFTLTISSLQPEDFATYYCLQDHDYPLTFGQGTKVEIK
notes: also called Class I anti-KRas antibody; 1A5-488 (labelled form in FACS)
As to B2, the equilibrium dissociation constant (Kd) – broadly, the equilibrium constant for the complex coming apart – in assay [2] worked out at 159 nM.

B3: anti-KRas antibody 1D6 (antibody, human IgG1, V domains shown)
VH: EVQLVESGGGLVQPGGSLRLSCAASGFTFSSYAMSWVRQAPGKGLEWVSAISSSGSSTYYADSVKGRFTISRDNSKNTLYLQMNSLRAEDTAVYYCARDQGGYGYPGESWFDYWGQGTLVTVSS
VL: B2 VL with A1D, R30S, N31S, D32Y, G34A, L89Q, D91Y, H92Y, D93S, L96F
notes: as for B1
Regarding B3, the binding result in assay [1] is given as “no binding (tested: titrated 2000-0 nM)”.

B4: anti-KRas antibody 1E5 (antibody, V domains shown)
VH: EVQLVESGGGLVKPGGSLRLSCAASGFTFSSYSMNWVRQAPGKGLEWVSSISSSSSYIYYADSVKGRFTISRDNAKNSLYLQMNSLRAEDTAVYYCARTNNYGYRYFDYWGQGTLVTVSS
VL: LTQDPAVSVALGQTVRITCQGDSLRSYYASWYQQKPGQAPVLVIYGKNNRPSGIPDRFSGSSSGNTASLTITGAQAEDEADYYCNSRDSSGNHWVFGGGTKLTVL
notes: also called Class II anti-KRas antibody
Consider B4, for which, in assay [2], the Kd stood at 411 nM.

B5: anti-KRas antibody 2A3 (antibody, human IgG1, V domains shown)
VH: B4 VH with T99A, N100T, N101S, Y102S, R105Y
VL: ELTQDPAVSVALGQTVRITCQGDSLRSYYASWYQQKPGQAPVLVIYGKNNRPSGIPDRFSGSSSGNTASLTITGAQAEDEADYYCNSRDSTDNHLWVFGGGTKLTVL
notes: as for B4
For the molecule B5, the Kd in assay [3] was found to be 7 nM; in assay [2], 71 nM.

B6: anti-KRas antibody 1F4 (antibody, human IgG1, V domains shown)
VH: EVQLVESGGGLVQPGGSLRLSCAASGFTFSSYSMNWVRQAPGKGLEWVSYISSSSSTIYYADSVKGRFTISRDNAKNSLYLQMNSLRAEDTAVYYCARSFGPYAFDVWGQGTLVTVSS
VL: not shown
As for B6, the binding result in assay [1] is “no binding (tested: titrated 2000-0 nM)”.

B7: anti-KRas antibody 3A12 (antibody, V domains shown)
VH: EVQLVESGGGLVQPGGSLRLSCAASGFTFSSYSMNWVRQAPGKGLEWVSYISSSSSTIYYADSVKGRFTISRDNAKNSLYLQMNSLRAEDTAVYYCARGKGIVGWGFFGMDVWGQGTLVTVSS
VL: SVLTQPPSVSAAPGQKVTISCSGSSSNIGNNYVSWYQQLPGTAPKLLIYDNNKRPSGIPDRFSGSKSGTSATLGITGLQTGDEADYYCGTWDNSLSVWVFGGGTKLTVL
notes: as for B4
Consider B7, for which the Kd in assay [2] came out at 24 nM.

B8: anti-KRas antibody 1B7 (antibody, human IgG1, V domains shown)
VH: EVQLVQSGAEVKKPGSSVKVSCKASGGTFSSYAISWVRQAPGQGLEWMGGIIPIFGTANYAQKFQGRVTITADESTSTAYMELSSLRSEDTAVYYCARYYDFWSGYPGGLFDVWGQGTLVTVSS
VL: B7 VL with N93S, S96T, V97G
notes: as for B1
As for B8, in assay [1], the binding result was “no binding (tested: titrated 2000-0 nM)”.

B9: anti-KRas antibody 1A6 (antibody, human IgG1, V domains shown)
VH: B8 VH
VL: B7 VL with N93S, S96T, V97G, W98Y
notes: as for B1
On to B9, for which, in assay [1], the binding result is “no binding (tested: titrated 2000-0 nM)”.

B10: anti-KRas antibody 2H11 (antibody, human IgG1, V domains shown)
VH: EVQLQESGPGLVKPPGTLSLTCAVSGGSISSSNWWSWVRQPPGKGLEWIGEIYHSGSTNYNPSLKSRVTISVDKSKNQFSLKLSSVTAADTAVYYCARGSSSWYDLGPFDYWGQGTLVTVSS
VL: not shown
notes: also called Class II anti-KRas antibody; CLAMP
B10: the Kd in assay [2] worked out at 42 nM.
